Experimental data from IntAct's records for PubMed 29892012.

B1: Glutaredoxin-3 (Homo sapiens), O76003 (parent)
chain: MAAGAAEAAVAAVEEVGSAGQFEELLRLKAKSLLVVHFWAPWAPQCAQMNEVMAELAKELPQVSFVKLEAEGVPEVSEKYEISSVPTFLFFKNSQKIDRLDGAHAPELTKKVQRHASSGSFLPSANEHLKEDLNLRLKKLTHAAPCMLFMKGTPQEPRCGFSKQMVEILHKHNIQFSSFDIFSDEEVRQGLKAYSSWPTYPQLYVSGELIGGLDIIKELEASEELDTICPKAPKLEERLKVLTNKASVMLFMKGNKQEAKCGFSKQILEILNSTGVEYETFDILEDEEVRQGLKAYSNWPTYPQLYVKGELVGGLDIVKELKENGELLPILRGEN
partner: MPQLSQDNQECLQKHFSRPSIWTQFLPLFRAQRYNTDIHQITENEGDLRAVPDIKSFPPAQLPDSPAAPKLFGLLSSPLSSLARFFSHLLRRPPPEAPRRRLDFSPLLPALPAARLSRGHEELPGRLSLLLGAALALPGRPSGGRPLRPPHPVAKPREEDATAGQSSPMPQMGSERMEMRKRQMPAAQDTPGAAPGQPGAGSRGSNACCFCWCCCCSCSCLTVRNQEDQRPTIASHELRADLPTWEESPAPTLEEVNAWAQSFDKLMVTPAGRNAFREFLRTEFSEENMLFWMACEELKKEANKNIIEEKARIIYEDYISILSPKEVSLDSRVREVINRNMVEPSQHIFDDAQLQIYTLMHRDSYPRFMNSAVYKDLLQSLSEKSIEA
B2: Ena/VASP-like protein (Homo sapiens), Q9UI08 (parent)
chain: MSEQSICQARASVMVYDDTSKKWVPIKPGQQGFSRINIYHNTASNTFRVVGVKLQDQQVVINYSIVKGLKYNQATPTFHQWRDARQVYGLNFASKEEATTFSNAMLFALNIMNSQEGGPSSQRQVQNGPSPDEMDIQRRQVMEQHQQQRQESLERRTSATGPILPPGHPSSAASAPVSCSGPPPPPPPPVPPPPTGATPPPPPPLPAGGAQGSSHDESSMSGLAAAIAGAKLRRVQRPEDASGGSSPSGTSKSDANRASSGGGGGGLMEEMNKLLAKRRKAASQSDKPAEKKEDESQMEDPSTSPSPGTRAASQPPNSSEAGRKPWERSNSVEKPVSSILSRTPSVAKSPEAKSPLQSQPHSRMKPAGSVNDMALDAFDLDRMKQEILEEVVRELHKVKEEIIDAIRQELSGISTT
partner: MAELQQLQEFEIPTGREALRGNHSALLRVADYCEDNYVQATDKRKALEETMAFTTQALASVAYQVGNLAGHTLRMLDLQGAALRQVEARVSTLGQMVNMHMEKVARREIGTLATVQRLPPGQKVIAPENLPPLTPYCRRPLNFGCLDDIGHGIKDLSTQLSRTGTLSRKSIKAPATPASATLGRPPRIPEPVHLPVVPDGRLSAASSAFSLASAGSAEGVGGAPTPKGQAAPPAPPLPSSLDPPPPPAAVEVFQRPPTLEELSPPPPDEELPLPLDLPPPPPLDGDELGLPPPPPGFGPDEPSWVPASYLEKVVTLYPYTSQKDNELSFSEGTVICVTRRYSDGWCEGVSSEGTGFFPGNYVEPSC
B3: Coiled-coil alpha-helical rod protein 1 (Homo sapiens), Q8TD31 (parent)
chain: MFPPSGSTGLIPPSHFQARPLSTLPRMAPTWLSDIPLVQPPGHQDVSERRLDTQRPQVTMWERDVSSDRQEPGRRGRSWGLEGSQALSQQAEVIVRQLQELRRLEEEVRLLRETSLQQKMRLEAQAMELEALARAEKAGRAEAEGLRAALAGAEVVRKNLEEGSQRELEEVQRLHQEQLSSLTQAHEEALSSLTSKAEGLEKSLSSLETRRAGEAKELAEAQREAELLRKQLSKTQEDLEAQVTLVENLRKYVGEQVPSEVHSQTWELERQKLLETMQHLQEDRDSLHATAELLQVRVQSLTHILALQEEELTRKVQPSDSLEPEFTRKCQSLLNRWREKVFALMVQLKAQELEHSDSVKQLKGQVASLQEKVTSQSQEQAILQRSLQDKAAEVEVERMGAKGLQLELSRAQEARRRWQQQTASAEEQLRLVVNAVSSSQIWLETTMAKVEGAAAQLPSLNNRLSYAVRKVHTIRGLIARKLALAQLRQESCPLPPPVTDVSLELQQLREERNRLDAELQLSARLIQQEVGRAREQGEAERQQLSKVAQQLEQELQQTQESLASLGLQLEVARQGQQESTEEAASLRQELTQQQELYGQALQEKVAEVETRLREQLSDTERRLNEARREHAKAVVSLRQIQRRAAQEKERSQELRRLQEEARKEEGQRLARRLQELERDKNLMLATLQQEGLLSRYKQQRLLTVLPSLLDKKKSVVSSPRPPECSASAPVAAAVPTRESIKGSLSVLLDDLQDLSEAISKEEAVCQGDNLDRCSSSNPQMSS
partner: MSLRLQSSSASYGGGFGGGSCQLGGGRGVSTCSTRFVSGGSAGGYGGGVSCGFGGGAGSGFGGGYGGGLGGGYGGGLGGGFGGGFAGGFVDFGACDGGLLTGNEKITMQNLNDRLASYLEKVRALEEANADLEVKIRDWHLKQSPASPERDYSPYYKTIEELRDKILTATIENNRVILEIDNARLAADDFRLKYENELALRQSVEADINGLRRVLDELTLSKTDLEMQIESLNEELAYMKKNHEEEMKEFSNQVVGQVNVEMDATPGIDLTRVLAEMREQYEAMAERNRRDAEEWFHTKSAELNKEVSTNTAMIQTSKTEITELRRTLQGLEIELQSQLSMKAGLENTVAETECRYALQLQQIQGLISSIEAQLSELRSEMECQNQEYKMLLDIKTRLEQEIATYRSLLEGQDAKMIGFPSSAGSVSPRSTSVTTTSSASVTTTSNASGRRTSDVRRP
B4: Glutaredoxin-3 (Homo sapiens), O76003 (parent)
chain: B1 chain
partner: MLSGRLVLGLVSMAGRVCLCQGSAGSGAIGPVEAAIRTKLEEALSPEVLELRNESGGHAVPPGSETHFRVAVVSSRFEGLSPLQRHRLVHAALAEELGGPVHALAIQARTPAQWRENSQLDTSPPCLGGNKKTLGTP
B5: Glycodelin (Homo sapiens), P09466 (parent)
chain: MLCLLLTLGVALVCGVPAMDIPQTKQDLELPKLAGTWHSMAMATNNISLMATLKAPLRVHITSLLPTPEDNLEIVLHRWENNSCVEKKVLGEKTENPKKFKINYTVANEATLLDTDYDNFLFLCLQDTTTPIQSMMCQYLARVLVEDDEIMQGFIRAFRPLPRHLWYLLDLKQMEEPCRF
partner: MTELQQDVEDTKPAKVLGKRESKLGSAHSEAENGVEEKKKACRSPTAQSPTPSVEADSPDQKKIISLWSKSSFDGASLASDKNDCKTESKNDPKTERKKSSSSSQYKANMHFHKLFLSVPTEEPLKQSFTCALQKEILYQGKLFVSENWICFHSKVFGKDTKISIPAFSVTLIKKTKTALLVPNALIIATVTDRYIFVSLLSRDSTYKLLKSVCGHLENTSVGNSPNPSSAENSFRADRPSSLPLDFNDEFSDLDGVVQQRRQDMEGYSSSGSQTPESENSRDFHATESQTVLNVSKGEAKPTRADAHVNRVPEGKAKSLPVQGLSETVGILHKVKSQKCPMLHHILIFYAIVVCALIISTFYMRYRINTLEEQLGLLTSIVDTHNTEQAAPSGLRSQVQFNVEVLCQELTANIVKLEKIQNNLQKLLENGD

Variants of: B1
Conditions: with rgs20_human RGS20, O76081

Variant | effect of a mutation on the interaction
P145A | with no effect

Variants of: B2
Conditions: with abi3_human ABI3, Q9P2A4

Variant | effect of a mutation on the interaction
R10Q | with no effect

Variants of: B3
Conditions: with KRT13, P13646

Variant | effect of a mutation on the interaction
W337R | disrupting interaction strength

Variants of: B4
Conditions: with bola1_human BOLA1, Q9Y3E2

Variant | effect of a mutation on the interaction
P145A | with no effect

Variants of: B5
Conditions: with grm2b_human GRAMD2B

Variant | effect of a mutation on the interaction
V75F | disrupting interaction strength
